Results from paper PMC4538829.

Experiments:
NM23-H2 D54A/D121A [1] = target: T1, NM23-H2 D54A/D121A (UniProt P22392 1-152, D54A;D121A); assay: filter binding
NM23-H2 D54A/D121A/F60A [2] = target: T2, NM23-H2 D54A/D121A/F60A (UniProt P22392 1-152, D54A;F60A;D121A); assay: filter binding
NM23-H2 G113F [3] = target: T3, NM23-H2 G113F (UniProt P22392 1-152, G113F); assay: filter binding
NM23-H2 D121A [4] = target: T4, NM23-H2 D121A (UniProt P22392 1-152, D121A); assay: filter binding
NM23-H2 D54A/D121A [5] = target: T1, NM23-H2 D54A/D121A; assay: EMSA
NM23-H2 D54A/D121A/F60A [6] = target: T2, NM23-H2 D54A/D121A/F60A; assay: EMSA
NM23-H2 G113F [7] = target: T3, NM23-H2 G113F; assay: EMSA
NM23-H2 D121A [8] = target: T4, NM23-H2 D121A; assay: EMSA
NM23-H2 wild-type = NM23-H2 wild-type (UniProt P22392 1-152); assay: ELISA
Sequence of NM23-H2 wild-type (P22392 whole entry): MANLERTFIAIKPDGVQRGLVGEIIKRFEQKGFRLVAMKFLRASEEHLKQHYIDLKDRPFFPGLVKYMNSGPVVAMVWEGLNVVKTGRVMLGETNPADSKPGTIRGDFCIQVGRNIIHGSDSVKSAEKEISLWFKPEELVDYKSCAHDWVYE

T2 sequence (P22392 whole entry D54A/F60A/D121A): as the sequence (P22392 whole entry) above, with D54A, F60A, D121A counted along it
T3 sequence (P22392 whole entry G113F): as the sequence (P22392 whole entry) above, with G113F counted along it
T4 sequence (P22392 whole entry D121A): as the sequence (P22392 whole entry) above, with D121A counted along it
T1 sequence (P22392 whole entry D54A/D121A): as the sequence (P22392 whole entry) above, with D54A, D121A counted along it

B1: SS-Pu27 (biotin) (ssDNA)
DNA: TGGGGAGGGTGGGGAGGGTGGGGAAGG
no binding: binding result (NM23-H2 D54A/D121A [1]) | binding result (NM23-H2 D54A/D121A/F60A [2]) | binding result (NM23-H2 G113F [3]) | binding result (NM23-H2 D121A [4])

B2: c-MYC Pu27 (FAM) (ssDNA)
DNA: TGGGGAGGGTGGGGAGGGTGGGGAAGG
no binding: binding result (NM23-H2 D54A/D121A [5]) | binding result (NM23-H2 D54A/D121A/F60A [6]) | binding result (NM23-H2 G113F [7]) | binding result (NM23-H2 D121A [8])

B3: c-MYC Pu18 G-quadruplex (structured_DNA)
DNA: AGGGTGGGGAGGGTGGGG
0.53 ± 0.018 µM: Kd (NM23-H2 wild-type)
